Source: patent US20180265552A1 (INSTITUT NATIONAL DE LA RECHERCHE AGRONOMIQUE, published 2018)

Target: TRCP VLP
Assay: titration, native agarose gel mobility shift

B1: Nb23 fused to EGFP (VHH)
VHH: QVQLQESGGGSVQVGGSLRVACAASGDTFSGYLAAWFRQAPGKGREGVAAINSKRHTTSYADSVKGRFTISKDNADNIMYLEMNSLKPEDTAIYYCAAADAIGLAEYWSTPTLSAARYKYWGQGTQVTVSS
For B1, the “molecular ratio between GFLV CP and Nb23:GFP at maximum mobility shift” value was ~1 Nb23:GFP per CP.
